Numbering of substitutions follows the chain as printed.

T1: human NBL1 (neuroblastoma suppressor of tumorigenicity 1) (human, UniProt P41271 17-181, limits assumed)
T1 construct: Recombinant human NBL1; also called DAN; DAND1
T1 sequence (looked up): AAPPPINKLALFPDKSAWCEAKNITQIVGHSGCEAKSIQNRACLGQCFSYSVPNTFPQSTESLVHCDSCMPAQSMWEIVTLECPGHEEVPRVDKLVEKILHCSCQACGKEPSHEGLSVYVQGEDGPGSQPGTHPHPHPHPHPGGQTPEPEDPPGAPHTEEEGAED

T2: mouse NBL1 (mouse, UniProt Q61477 17-178, limits assumed)
T2 sequence (looked up): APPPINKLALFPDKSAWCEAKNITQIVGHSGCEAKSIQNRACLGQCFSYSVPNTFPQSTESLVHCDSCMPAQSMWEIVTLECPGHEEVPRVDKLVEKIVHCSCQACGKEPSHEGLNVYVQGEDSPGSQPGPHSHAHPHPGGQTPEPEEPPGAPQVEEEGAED

B1: Antibody YU1019-A12 (antibody, V domains shown)
VH: EVQLLESGPGLVKPSQTLSLTCTVSGGSISSGDYYWSWIRQPPGKGLEWIGYIYYSGSTYYNPSLKSRVTISVDTSKNQFSLKLSSVTAADTAVYYCARGRRLLLFHWGQGTTVTVSS
VL: QSVLTQPPSVSAAPGQKVTISCSGSGSSIGNNYVSWYQQVPGTPPKLLIYDNNKRASGIPDRFSGSKSGTSATLGITGLQTGDEADYYCGTWDNSLSAVVFGGGTKLTVL
B2: Antibody YU1018-D06 (antibody, V domains shown)
VH: QVQLVESGPGLVKPSQTLSLTCTVSGGSISSGGYYWSWIRQHPGKGLEWIGYIYYSGSTYYNPSLKSRVTISVDTSKNQFSLKLSSVTAADTAVYYCARSGAAGIPWFDPWGQGTLVTVSS
VL: B1 VL with G26S, S28N, V40L, P44A, D51E, K54E, A56P, F63L, G75A, N94S
B3: Antibody YU1018-D08 (antibody, V domains shown)
VH: QVQLVQSGAEVKKPGSSVKVSCKASGGTFSSYAISWVRQAPGQGLEWMGGIIPIFGTANYAQKFQGRVTITADKSTSTAYMELSSLRSEDTAVYYCARDRYYDSSGYYLMDPWGQGTLVTVSS
VL: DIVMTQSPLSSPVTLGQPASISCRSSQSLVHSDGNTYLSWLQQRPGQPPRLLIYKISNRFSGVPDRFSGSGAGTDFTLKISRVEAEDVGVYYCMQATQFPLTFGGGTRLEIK
B4: Antibody YU1018-D12 (antibody, V domains shown)
VH: EVQLVQSGAEVKKPGASVKVSCKASGYTFTSYGISWVRQAPGQGLEWMGWISAYNGNTNYAQKLQGRVTMTTDTSTSTAYMELRSLRSDDTAVYYCARDVGYSYGIFDYWGQGTLVTVSS
VL: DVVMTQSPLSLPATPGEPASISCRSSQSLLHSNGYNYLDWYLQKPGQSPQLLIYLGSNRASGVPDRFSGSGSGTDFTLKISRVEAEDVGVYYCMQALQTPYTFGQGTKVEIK
B5: Antibody YU1018-E04 (antibody, V domains shown)
VH: QVQLVQSGAEVKKPGESLKISCKGSGYSFTSYWIGWVRQMPGKGLEWMGIIYPGDSDTRYSPSFQGQVTISADKSISTAYLQWSSLKASDTAMYYCARAIVGATSGYWFDPWGQGTLVTVSS
VL: not shown
B6: Antibody YU1018-E01 (antibody, V domains shown)
VH: QVQLVQSGAEVKKPGASVKVSCKASGYTFTSYGISWVRQAPGRGLEWMGWISAYNGNTNYAQKLQGRVTMTTDTSTSTAYMELRSLRSDDTAVYYCARGPRDGYNDYWGQGTLVTVSS
VL: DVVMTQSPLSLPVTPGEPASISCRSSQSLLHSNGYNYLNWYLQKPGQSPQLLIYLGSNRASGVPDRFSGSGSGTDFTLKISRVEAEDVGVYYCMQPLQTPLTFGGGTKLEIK
B7: Antibody YU1019-B06 (antibody, V domains shown)
VH: EVQLLESGGGVVQPGRSLRLSCAASGFTFSSYAMHWVRQAPGKGLEWVAVISYDGSNKYYADSVKGRFTISRDNSKNTLYLQMNSLRAEDTAVYYCASPVLRYFDWLPNYWGQGTLVTVSS
VL: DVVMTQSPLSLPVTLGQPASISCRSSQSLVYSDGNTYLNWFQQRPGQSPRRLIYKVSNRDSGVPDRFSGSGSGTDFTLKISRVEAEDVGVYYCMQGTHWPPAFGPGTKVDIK
B8: Antibody YU1018-E07 (antibody, V domains shown)
VH: B7 VH with L116T
VL: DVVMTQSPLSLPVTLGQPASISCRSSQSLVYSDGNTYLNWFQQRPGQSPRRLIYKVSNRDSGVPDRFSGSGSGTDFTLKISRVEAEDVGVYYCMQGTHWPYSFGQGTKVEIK
B9: Antibody YU1018-G01 (antibody, V domains shown)
VH: QVQLVQSGAEVKKPGASVKVSCKASGYTFTSYAMHWVRQAPGQRLEWMGWINAGNGNTKYSQKFQGRVTITRDTSASTAYMELSSLRSEDTAVYYCARGRELLTFDYWGQGTLVTVSS
VL: not shown

In the first assay the target is T1, human NBL1 (neuroblastoma suppressor of …). Kind of assay: ELISA, IgG1 format.
Description: (§1) Naïve human phage display libraries were panned to discover Fabs capable of binding human NBL1 (UniProt ID P41271), and further screened for potential inter species cross reactivity to mouse NBL1 (UniProt ID Q61477) and/or cynomolgus (“cyno”) NBL1 (UniProt ID A0A2K5WIY3). […] Antigen binding of the IgG1 formatted antibodies was tested by ELISA and EC50 values were calculated.
Turning to B1, the binding result is “binds”.
Regarding B2, the binding result is reported as “binds”.
Still for that read-out and setting: for B3 the value was “binds”; for B4, “binds”; for B5, “binds”.
The same measure, in the same setting: for B6 the value was “binds”.
On the same count and under the same terms, for B7 the value was “binds”; for B8, “binds”.
B9: the binding result is “binds”.

For another assay, the target named is T2, mouse NBL1. Kind of assay: ELISA, IgG1 format. (ELISA stands for enzyme-linked immunosorbent assay.)
Description: as §1
As to B1, the binding result is reported as “binds”.
Same read-out and setting: for B2 the value was “binds”; for B3, “binds”; for B4, “binds”.
On the same count and under the same terms, for B5 the value was “binds”.
On the same count and under the same terms, for B6 the value was “binds”; for B7, “binds”.
For the molecule B8, the binding result is given as “binds”.
Consider B9, for which the binding result is given as “binds”.

For the origin of these results see patent US20260265357A1 (NEPHRIS, published 2026).
